Source: patent US20120034160A1 (AbbVie / Abbott, published 2012)
Several values for one entry are separate records, joined by “and”; a condition that tells them apart may be missing. Identical values can stand only once. Blank lines part the entries; values can stand above or below the binder they belong to.

Assays:
Recombinant Human IL-1β [1] = target: T1, Recombinant Human IL-1β (human, UniProt P01584 117-269); assay: Biacore SPR; C-terminal VD
T1 construct: Bought reagent; also called IL-1B
Method in brief: (§1)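 Captured antibody or DVD-Ig bound antigen (10−200 nM) in HBS-EP at 25° C. KD = koff/kon from a 1:1 global fit.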

Recombinant Human IL-1β [2] = target: T1, Recombinant Human IL-1β; assay: cell-based or functional assay
Recombinant Human IL-17 [3] = target: T2, Recombinant Human IL-17 (human, UniProt Q16552 20-155, limits assumed); assay: Biacore SPR; N-terminal VD
T2 construct: Bought reagent
T2 sequence (looked up): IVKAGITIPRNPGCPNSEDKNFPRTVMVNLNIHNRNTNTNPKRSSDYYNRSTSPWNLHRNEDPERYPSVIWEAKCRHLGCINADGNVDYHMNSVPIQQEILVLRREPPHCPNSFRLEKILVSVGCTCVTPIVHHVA
Method in brief: as §1

Recombinant Human IL-17 [4] = target: T2, Recombinant Human IL-17; assay: cell-based or functional assay
Recombinant Human IL-17 [5] = target: T3, Recombinant Human IL-17 (human, UniProt Q16552 20-155, limits assumed); assay: Biacore SPR
T3 construct: bought reagent
T3 sequence (looked up): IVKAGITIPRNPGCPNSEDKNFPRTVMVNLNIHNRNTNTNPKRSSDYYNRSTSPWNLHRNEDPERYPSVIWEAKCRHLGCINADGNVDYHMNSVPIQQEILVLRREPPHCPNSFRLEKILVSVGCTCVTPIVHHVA
Description: (§2) The BIACORE assay (Biacore, Inc, Piscataway, N.J.) determines the affinity of antibodies or DVD-Ig with kinetic measurements of on-rate and off-rate constants. Binding of antibodies or DVD-Ig to a target antigen (for example, a purified recombinant target antigen) was determined by surface plasmon resonance-based measurements with a Biacore® 1000 or 3000 instrument (Biacore® AB, Uppsala, Sweden) using running HBS-EP (10 mM HEPES [pH 7.4], 150 mM NaCl, 3 mM EDTA, and 0.005% surfactant P20) at 25° C. All chemicals were obtained from Biacore® AB (Uppsala, Sweden) or otherwise from a different source as described in the text. For example, approximately 5000 RU of goat anti-mouse IgG, (Fcγ), fragment specific polyclonal antibody (Pierce Biotechnology Inc, Rockford, Ill.) diluted in 10 mM sodium acetate (pH 4.5) was directly immobilized across a CM5 research grade biosensor chip using a standard amine coupling kit according to manufacturer's instructions and procedures at 25 μg/ml. Unreacted moieties on the biosensor surface were blocked with ethanolamine. Modified carboxymethyl dextran surface in flowcell 2 and 4 was used as a reaction surface. Unmodified carboxymethyl dextran without goat anti-mouse IgG in flow cell 1 and 3 was used as the reference surface. For kinetic analysis, rate equations derived from the 1:1 Langmuir binding model were fitted simultaneously to association and dissociation phases of all eight injections (using global fit analysis) with the use of Biaevaluation 4.0.1 software. Purified antibodies or DVD-Ig were diluted in HEPES-buffered saline for capture across goat anti-mouse IgG specific reaction surfaces. Antibodies or DVD-Ig to be captured as a ligand (25 μg/ml) were injected over reaction matrices at a flow rate of 5 μl/min. The association and dissociation rate constants, kₒₙ (M⁻¹s⁻¹) and koff (s⁻¹) were determined under a continuous flow rate of 25 μl/min. Rate constants were derived by making kinetic binding measurements at different antigen concentrations ranging from 10−200 nM. The equilibrium dissociation constant (M) of the reaction between antibodies or DVD-Igs and the target antigen was then calculated from the kinetic rate constants by the following formula: KD=koff/kₒₙ. Binding was recorded as a function of time and kinetic rate constants are calculated.

Recombinant Human IL-17 [6] = target: T2, Recombinant Human IL-17; assay: Biacore SPR
Description: as §2

Recombinant Human IL-17 [7] = target: T2, Recombinant Human IL-17; assay: Biacore SPR; later run, parent printed with DVD1639-DVD1648; kon 4.70E+06, koff 8.50E-05
Description: (§3) The BIACORE assay (Biacore, Inc, Piscataway, N.J.) determines the affinity of antibodies or DVD-Ig with kinetic measurements of on-rate and off-rate constants. Binding of antibodies or DVD-Ig to a target antigen (for example, a purified recombinant target antigen) was determined by surface plasmon resonance-based measurements with a Biacore® 1000 or 3000 instrument (Biacore® AB, Uppsala, Sweden) using running HBS-EP (10 mM HEPES [pH 7.4], 150 mM NaCl, 3 mM EDTA, and 0.005% surfactant P20) at 25° C. All chemicals were obtained from Biacore® AB (Uppsala, Sweden) or otherwise from a different source as described in the text. […] The association and dissociation rate constants, kₒₙ (M⁻¹s⁻¹) and koff (s⁻¹) were determined under a continuous flow rate of 25 μl/min. […] The equilibrium dissociation constant (M) of the reaction between antibodies or DVD-Igs and the target antigen was then calculated from the kinetic rate constants by the following formula: KD=koff/kₒₙ. Binding was recorded as a function of time and kinetic rate constants are calculated.

Recombinant Human IL-17 [8] = target: T3, Recombinant Human IL-17; assay: Biacore SPR; first run, parent printed with DVD1282-DVD1291; kon 2.80E+03, koff 2.40E-05
Description: as §3

Kd (Recombinant Human IL-1β [1]): 0.56 nM
koff (Recombinant Human IL-1β [1]): 0.00075 s⁻¹
kon (Recombinant Human IL-1β [1]): 1.3e+06 M⁻¹ s⁻¹
C-Terminal VD IL-1β Neutralization Assay EC50 (Recombinant Human IL-1β [2]): 16.2 nM
Kd (Recombinant Human IL-17 [3]): 0.02 nM
koff (Recombinant Human IL-17 [3]): 6.2e-05 s⁻¹
kon (Recombinant Human IL-17 [3]): 3.1e+06 M⁻¹ s⁻¹
N-terminal VD IL-17 Neutralization Assay EC50 (Recombinant Human IL-17 [4]): 0.0089 nM
B1: DVD1648 (bispecific antibody, human IgG1, kappa)
heavy: not shown
light: EIVLTQSPDFQSVTPKEKVTITCRASQNIGSELHWYQQKPDQSPKLLIKYASHSISGVPSRFSGSGSGTDFTLTINGLEAEDAATYYCHQSDTLPHTFGQGTKVDIKRTVAAPETTVTQSPSSLSASVGDRVTITCITSTDIDVDMNWYQQKPGKPPKLLISQGNTLRPGVPSRFSSSGSGTDFTFTISSLQPEDFATYYCLQSDNLPLTFGQGTKLEIKRTVAAPSVFIFPPSDEQLKSGTASVVCLLNNFYPREAKVQWKVDNALQSGNSQESVTEQDSKDSTYSLSSTLTLSKADYEKHKVYACEVTHQGLSSPVTKSFNRGEC
notes: DVD-Ig: outer AB275, inner AB272; V1/V2 vectors: wild type hIgG1, kappa

koff (Recombinant Human IL-17 [6]): 8.5e-05 s⁻¹
kon (Recombinant Human IL-17 [6]): 4.7e+06 M⁻¹ s⁻¹
IL-17 Neutralization Assay EC50 (Recombinant Human IL-17 [4]): 0.0032 nM
Kd (Recombinant Human IL-17 [7]): 0.018 nM
B4: AB275 (antibody, human IgG1, kappa, V domains shown)
VH: EVQLVQSGAEVKKPGESVKISCKASGGSFRSYGISWVRQAPGQGLEWMGGITHFFGITDYAQKFQGRVTITADESTTTAYMELSGLTSDDTAVYYCAREPNDFWNGYYDTHDFDSWGQGTTVTVSS
VL: EIVLTQSPDFQSVTPKEKVTITCRASQNIGSELHWYQQKPDQSPKLLIKYASHSISGVPSRFSGSGSGTDFTLTINGLEAEDAATYYCHQSDTLPHTFGQGTKVDIKR
notes: Parent antibody

Kd (Recombinant Human IL-17 [5]): 0.019 nM
Kd (Recombinant Human IL-17 [8]): 8.8 nM
B5: AB275 (antibody, human IgG1, kappa, V domains shown)
VH: EVQLVQSGAEVKKPGESVKISCKASGGSFRSYGISWVRQAPGQGLEWMGGITHFFGITDYAQKFQGRVTITADESTTTAYMELSGLTSDDTAVYYCAREPNDFWNGYYDTHDFDSWGQGTTVTVSS
VL: EIVLTQSPDFQSVTPKEKVTITCRASQNIGSELHWYQQKPDQSPKLLIKYASHSISGVPSRFSGSGSGTDFTLTINGLEAEDAATYYCHQSDTLPHTFGQGTKVDIKR
notes: constants by vectors: V1 wt hIgG1, V2 kappa

Further lines, the binder ahead of its results:

B2: AB273 (antibody, human IgG1, kappa, V domains shown)
VH: EVQLVQSGAEVKKPGSSVKVSCKASGYTFTDYEIHWVRQAPGQGLEWMGVNDPESGGTFYNQKFDGRVTLTADESTSTAYMELSSLRSEDTAVYYCTRYSKWDSFDGMDYWGQGTTVTVSS
VL: DIQMTQSPSSLSASVGDRVTITCRASSGIISYIDWFQQKPGKAPKRLIYATFDLASGVPSRFSGSGSGTDYTLTISSLQPEDFATYYCRQVGSYPETFGQGTKLEIKR
notes: as for B5
koff (Recombinant Human IL-17 [5]): ≤ 1e-05 s⁻¹ and 1.2e-05 s⁻¹ and 1.3e-05 s⁻¹

B3: AB274 (antibody, human IgG1, kappa, V domains shown)
VH: EVQLVQSGAEVKKPGSSVKVSCKASGGSFGGYGIGWVRQAPGQGLEWMGGITPFFGFADYAQKFQGRVTITADESTTTAYMELSGLTSDDTAVYYCARDPNEFWNGYYSTHDFDSWGQGTTVTVSS
VL: EIVLTQSPDFQSVTPKEKVTITCRASQDIGSELHWYQQKPDQPPKLLIKYASHSTSGVPSRFSGSGSGTDFTLTINGLEAEDAGTYYCHQTDSLPYTFGPGTKVDIKR
notes: Parent antibody
Kd (Recombinant Human IL-17 [6]): 0.0068 nM
koff (Recombinant Human IL-17 [6]): 1.8e-05 s⁻¹
kon (Recombinant Human IL-17 [6]): 2.7e+06 M⁻¹ s⁻¹
IL-17 Neutralization Assay EC50 (Recombinant Human IL-17 [4]): 0.002 nM

B6: AB274 (antibody, human IgG1, kappa, V domains shown)
VH: EVQLVQSGAEVKKPGSSVKVSCKASGGSFGGYGIGWVRQAPGQGLEWMGGITPFFGFADYAQKFQGRVTITADESTTTAYMELSGLTSDDTAVYYCARDPNEFWNGYYSTHDFDSWGQGTTVTVSS
VL: EIVLTQSPDFQSVTPKEKVTITCRASQDIGSELHWYQQKPDQPPKLLIKYASHSTSGVPSRFSGSGSGTDFTLTINGLEAEDAGTYYCHQTDSLPYTFGPGTKVDIKR
notes: as for B5
koff (Recombinant Human IL-17 [5]): 2e-05 s⁻¹ and 2.1e-05 s⁻¹ and 1.8e-05 s⁻¹
